Tests used:
GPCR142 = molecular target: T1, GPCR142 (Homo sapiens, UniProt Q8TDU9, L329S); assay: Radioligand competition binding, [125I]-relaxin-3, membranes of transfected COS-7 cells; details: for binding / affinity for GPCR142, in words: highest concentration 1 μM
T1 construct: expressed in transfected cells
Description: FIGS. 3A-3D illustrate the characterization of various relaxin-3 chimeric polypeptides using radioligand binding assays. Different relaxin-3 chimeric polypeptides were characterized for their receptor binding properties for human recombinant GPCR135 (FIG. 3A), GPCR142 (FIG. 3B), LGR7 (FIG. 3C), or LGR8 (FIG. 3D). For GPCR135, GPCR142, and LGR7, [^125I]-relaxin-3 was used as the radioligand at a final concentration of 100 pM. Different unlabeled peptides were used in the binding assay as the competitors. For LGR8, [^125I]-INSL3 was used as the radioligand at a final concentration of 100 pM. Different unlabeled peptides including relaxin-3 chimeras at various concentrations were added to the binding assay as the competitors. Data represent mean±SEM (n=3).
Radioligand binding assays for GPCR135 and GPCR142 were performed as previously described (Liu et al., 2003, Journal of Biological Chemistry, 278:50754-50764 and Liu et al., 2003, Journal of Biological Chemistry, 278:50765-50770). Membranes from COS-7 cells transiently transfected with either the GPCR135 expression vector or the GPCR142 expression vector, each described supra, were incubated with [^125I]-relaxin-3 at a final concentration 100 pM in 96-well plates. Peptides for competition binding studies were added to the binding mix (final volume: 200 μl) in binding buffer [50 mM Tris-HCl, pH 7.5, 5 mM EDTA, 1% bovine serum albumin, 0.1% protease inhibitor cocktails (Sigma)]. The binding mixtures were incubated at room temperature for 1 hour, filtered through GFC plates (Packard) pre-saturated with 0.3% Polyethylenimine (Sigma), and washed with cold washing buffer (50 mM Tris-HCl, pH 7.5, 5 mM EDTA). Microscint-40 was added to each well and the bound [^125I]-relaxin-3 was counted in a scintillation counter (TopCount/NTX, Packard).

LGR8 = molecular target: T2, LGR8 (Homo sapiens, UniProt Q8WXD0); assay: Stimulation of β-galactosidase expression in SK-N-MC/β-gal cells; assay type: cell-based; details: highest concentration tested 1 μM
T2 construct: Human LGR8 cDNA containing the complete coding region was PCR amplified; expressed in transfected cells
T2 sequence (Q8WXD0 whole entry): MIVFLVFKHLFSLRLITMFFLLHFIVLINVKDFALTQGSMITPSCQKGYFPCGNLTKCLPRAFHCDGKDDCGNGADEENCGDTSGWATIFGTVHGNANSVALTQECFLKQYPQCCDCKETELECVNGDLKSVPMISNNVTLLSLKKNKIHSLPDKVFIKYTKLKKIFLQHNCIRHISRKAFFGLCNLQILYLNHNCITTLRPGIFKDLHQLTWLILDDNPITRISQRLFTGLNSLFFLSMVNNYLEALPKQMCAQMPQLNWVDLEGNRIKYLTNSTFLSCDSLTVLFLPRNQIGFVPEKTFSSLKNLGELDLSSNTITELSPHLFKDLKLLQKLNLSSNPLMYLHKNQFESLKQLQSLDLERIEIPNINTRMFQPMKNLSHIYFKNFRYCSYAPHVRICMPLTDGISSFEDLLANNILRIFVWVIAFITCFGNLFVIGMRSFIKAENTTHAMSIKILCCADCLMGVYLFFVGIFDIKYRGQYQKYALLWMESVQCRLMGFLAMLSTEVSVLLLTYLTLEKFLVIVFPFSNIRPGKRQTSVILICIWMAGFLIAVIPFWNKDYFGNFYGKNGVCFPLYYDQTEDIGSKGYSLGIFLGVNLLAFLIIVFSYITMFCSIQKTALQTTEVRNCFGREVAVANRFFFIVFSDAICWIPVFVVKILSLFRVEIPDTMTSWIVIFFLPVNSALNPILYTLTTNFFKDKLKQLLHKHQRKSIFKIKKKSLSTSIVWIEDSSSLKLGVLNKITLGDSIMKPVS
Procedure: FIGS. 1A-1D show the activation of GPCR135 and GPCR142 by relaxin-3 B-chain, but not of LGR7 or LGR8. In FIG. 1A, SK-N-MC/β-gal cells expressing human GPCR135 were stimulated with relaxin-3, relaxin-3 B-chain, porcine relaxin, or INSL3 at various concentrations to inhibit the forskolin stimulated β-galactosidase expression. Forskolin was added to cells at a final concentration of 5 μM to stimulate the β-galactosidase expression. FIG. 1B depicts results for SK-N-MC/β-gal cells expressing human GPCR142 stimulated as in FIG. 1A. In FIG. 1C, SK-N-MC/β-gal cells expressing human LGR7 were stimulated with relaxin-3, relaxin-3 B-chain, porcine relaxin, and INSL3 at various concentrations to induce the β-galactosidase expression. The intracellular β-galactosidase activities were measured by a colorimetric assay using CRGP as the substrate and reading the absorbance at a wavelength of 570 nm. For FIG. 1D, SK-N-MC/β-gal cells expressing human LGR8 were stimulated as in FIG. 1C.
FIGS. 4A-4D illustrate the evaluation of the agonist activity of relaxin-3 chimeric polypeptides in biofunctional assays. Different chimeric polypeptides at various concentrations were added to SK-N-MC/β-gal cells expressing human GPCR135 (FIG. 4A) or GPCR142 (FIG. 4B) to inhibit forskolin stimulated β-galactosidase expression. Human relaxin-3 was used as the positive control. In parallel, chimeric polypeptides at various concentrations were added to SK-N-MC/β-gal cells expressing human LGR7 (FIG. 4C) and LGR8 (FIG. 4D) to stimulate β-galactosidase expression. Relaxin-3 and INSL3 were used as positive controls for LGR7 and LGR8, respectively. Intracellular β-galactosidase activity was measured by a colorimetric assay using CRGP as the substrate and reading the absorbance at wavelength of 570 nm. Data represent mean±SEM (n=3).
It has been shown that synthetic human relaxin-3 B-chain alone, but not A-chain, is an agonist for both GPCR135 and GPCR142 (Liu et al., 2003, Journal of Biological Chemistry, 278:50754-50764 and Liu et al., 2003, Journal of Biological Chemistry, 278:50765-50770). Those studies were repeated herein in SK-N-MC/β-gal cells, which harbor a β-galactosidase gene under the control of a cAMP responsive element (CRE) (Liu et al., 2001, Molecular Pharmacology, 59:420-426). In such SK-N-MC/β-gal cells, an increase in intracellular cAMP concentration leads to increased β-galactosidase gene expression, the activity of which is measured using Chlorophenol Red-β-D-Galactopyranoside (CPRG) as the substrate.
The inventive chimeric polypeptides were each independently tested for their ability to activate either GPCR135, GPCR142, LGR7, or LGR8, respectively, in separate pools of SK-N-MC/β-gal cells (see supra), each pool stably expressing one of the respective receptors, as indicated (FIG. 4).
Cells were seeded in 96-well tissue culture plate at a density of 30,000 cells/well in MEM plus 10% fetal serum, sodium pyruvate, penicillin, streptomycin, and G418 (400 mg/L). For cells expressing GPCR135 or GPCR142, forskolin was added to cells at a final concentration of 5 μM to stimulate intracellular cAMP accumulation. Different concentrations of each of the inventive polypeptides were then added to the cells to inhibit the forskolin induced cAMP accumulation. For cells expressing LGR7 or LGR8, intracellular cAMP was stimulated with each of the inventive chimeric polypeptides at various concentrations.
For all cells, after adding the chimeric polypeptides, cells were incubated for 6 additional hours in 37° C. incubator. The media was then aspirated and the β-galactosidase activities measured as previously described (Liu et al., 2001, Molecular Pharmacology, 59:420-426). The results were analyzed by Prism 3.0 software. […]

T1 sequence (Q8TDU9 whole entry L329S): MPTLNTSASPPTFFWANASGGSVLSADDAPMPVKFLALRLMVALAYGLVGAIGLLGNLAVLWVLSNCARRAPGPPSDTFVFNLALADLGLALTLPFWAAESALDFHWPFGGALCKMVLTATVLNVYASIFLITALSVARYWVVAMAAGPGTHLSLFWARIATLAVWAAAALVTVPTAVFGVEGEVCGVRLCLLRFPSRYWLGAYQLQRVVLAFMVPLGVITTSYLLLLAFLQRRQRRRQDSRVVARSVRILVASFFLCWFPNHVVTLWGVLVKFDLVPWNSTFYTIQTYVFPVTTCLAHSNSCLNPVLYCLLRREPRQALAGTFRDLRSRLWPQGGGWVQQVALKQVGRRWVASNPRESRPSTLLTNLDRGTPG

Substance | affinity for GPCR142 (GPCR142; discussion) [nM] | activation of LGR8, in words (LGR8) | binding / affinity for GPCR142, in words (GPCR142)
R3/I6: chimeric polypeptide: human relaxin-3 B-chain and INSL6 A-chain; mature polypeptide SEQ ID NO:24 (RAAPYGVRLCGREFIRAVIFTCGGSRWGYSEKCCLTGCTKEELSIAC; Human Relaxin-3/Insulin-like 6 chimeric mature polypeptide) | 10 to 15 | inactive | 
R3/I5: chimeric polypeptide: human relaxin-3 B-chain and INSL5 A-chain; mature polypeptide SEQ ID NO:23 (RAAPYGVRLCGREFIRAVIFTCGGSRWQDLQTLCCTDGCSMTDLSALC; Human Relaxin-3/Insulin-like 5 chimeric mature polypeptide) |  | inactive | low nanomolar range
R3/I4: chimeric polypeptide: human relaxin-3 B-chain and INSL4 A-chain; mature polypeptide SEQ ID NO:22 (RAAPYGVRLCGREFIRAVIFTCGGSRWFDPFCCEVICDDGTSVKLC; Human Relaxin-3/Insulin-like 4 chimeric mature polypeptide) |  | no activity | marginal binding at the highest concentration (1 μM)

From US7893197B2, “Relaxin-3 chimeric polypeptides and their preparation and use” (Janssen Pharmaceutica N.V., priority 2005, dated 2011)
